The labels stand for the following.
B1: SC06-043 (scFv)
scFv: EVQLVESGAEVKKPGESLKISCKGSGYSFTSYWIGWVRQMPGKGLEWMGIIYPGDSDTRYSPSFQGQVTISADKSISTAYLQWSSLKASDTAMYYCARRYCSGGTCSDGFDIWGQGTMVTVSSGTGGSGGTGSGTGGSTQSALTQPPSASGSPGQSVTISCTGTSSDVGGYNYVSWYQQHPGKAPKLMIYEVSKRPSGVPDRFSGSKSGNTASLTVSGLQAEDEADYYCSSYAGSNNLVFGGGTKLTVL
B2: SC05-187 (scFv)
scFv: EVQLVQSGAEVKKPGESLKISCKGSGYSFTKYWIGWVRQMPGKGLEWMGIIYPGDSDTRYSPSFQGQVTISADKSISTAYLQWSSLKASDTAMYYCARGSGIATGNSFDSWGQGTLVTVSSGTGGSGGTGSGTGGSTQTVVTQEPSLTVSPGGTVTLTCASSTGAVTSGYYPNWFQQKPGQAPRALIYSTSKKHSWTPARFSGSLLGGRAALTLSGAQPEDEADYYCLLSYGGARVFGGGTKLTVL
B3: SC06-016 (scFv)
scFv: QVQLVQSGPEVKKPGASVTVSCKASGYSFSSYGISWVRQAPGQGLEWMGRIIPVGGNTLYSQMFQGRVTMTSDTSTSTVYLELSSLRSEDTAVYFCARDGGRWQFDYWGQGTLVTVSSGTGGSGGTGSGTGGSTDIQLTQSPSSVSASVGDRVTITCRASQGISNWLAWYQQKPGKAPELLIYAASSLQSGVPPRFSGSASGTDFTLTISSLQPEDFATYYCQQSKNFPYTFGQGTKVEIK
B4: SC06-049 (scFv)
scFv: QVQLVQSGAEVKKPGESLKISCKGSGYSFTSYWIGWVRQMPGKGLEWMGIIYPGDSDTRYSPSFQGQVTISADKSIGTAYLQWSSLKASDTAMYYCARLFRVRGGHFDSWGQGTLVTVSSGTGGSGGTGSGTGGSTQSALTQPASVSGSPGQSITISCTGTNSDVGGYNYVSWYQQHPGKAPKLLIYDVTNRPSGVSNRFSASKSGNTASLTISGLQAEDEADYYCSSFTSSSTRVFGGGTKLTVL
B5: SC06-050 (scFv)
scFv: EVQLVESGPEVKKPGASVKVSCEASGYNLDNYGITWVRQAPGQGLEWLGWISAYNAKTEYGQRLQGRVTMTTDTATSTAYLELRSLRSDDTAVYYCARVLGYRGGWYDEGDAFDVWGQGTMVTVSSGTGGSGGTGSGTGGSTDIQLTQSPSFLSASVGDRVTITCRASQGIRSHLAWYQQKAGKAPKLLIYAASTLQSGVPSRFSGSGSGTEFTLTISSLQPDDFAAYYCQQLNTYPITFGQGTRLEIK
notes: also called SC05-050
B6: SC05-179 (scFv)
scFv: EVQLVESGGGLVKPGGSLGLSCAASGFFFSDYSMSWIRQAPGKGLEWLSNISGSGHSTKYAESMRGRITISRDNAKKSLSLQLNSLRAEDTAVYFCVRGGGYRMDVWGQGTTVTVSSGTGGSGGTGSGTGGSTQSALTQPRSVPGSPGQSVTISCTGTSSDVGGYNYVSWYQQHPGKAPKLMIYDVSKRPSGVPDRFSGSKSGNTASLTVSGLQAEDEADYYCSSYAGSNNFVVFGGGTKLTVL

T1 sequence (P02769 25-607 limits assumed): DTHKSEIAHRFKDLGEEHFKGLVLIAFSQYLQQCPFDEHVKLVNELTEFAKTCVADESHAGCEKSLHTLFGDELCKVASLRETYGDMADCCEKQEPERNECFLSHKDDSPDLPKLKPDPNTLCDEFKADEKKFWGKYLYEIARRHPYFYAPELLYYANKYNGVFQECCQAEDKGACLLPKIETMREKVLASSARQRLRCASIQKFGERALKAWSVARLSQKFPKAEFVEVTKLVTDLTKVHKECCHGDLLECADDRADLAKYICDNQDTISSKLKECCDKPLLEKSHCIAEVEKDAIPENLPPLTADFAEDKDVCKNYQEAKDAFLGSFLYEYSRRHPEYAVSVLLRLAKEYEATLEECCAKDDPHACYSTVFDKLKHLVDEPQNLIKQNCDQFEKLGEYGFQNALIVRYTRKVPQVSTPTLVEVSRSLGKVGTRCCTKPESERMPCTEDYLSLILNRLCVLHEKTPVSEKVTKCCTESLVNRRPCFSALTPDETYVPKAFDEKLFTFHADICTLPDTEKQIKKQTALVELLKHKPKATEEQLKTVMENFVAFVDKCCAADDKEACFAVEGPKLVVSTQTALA

This assay addresses T1, BSA (bovine serum albumin) (bovine (송아지 혈청 알부민), UniProt P02769 25-607).
T1 construct: Negative control antigen of the phage ELISA; also called 송아지 혈청 알부민
The assay can be described thus: phage ELISA, 1% BSA coated, anti-M13 peroxidase, OD 492 nm. In general terms: In an ELISA, binding on a coated surface is turned into a signal by an enzyme label.
Regarding B1, the binding result was “no binding”.
On to B2, for which the binding result is “no binding”.
Take B3: the binding result is “no binding”.
The result for B4 reads “no binding”; that for B5, “no binding”.
The same measure for B6: “no binding”.

The record behind these values is patent KR20140095558A (dated 2014).
